{
  "source": "paper PMC8596125",
  "about": "“Self‐Stabilized Supramolecular Assemblies Constructed from PEGylated Dendritic Peptide Conjugate for Augmenting Tumor Retention and Therapy” (Advanced Science, 2021)",
  "key": {"[1]": {"test_system": "mouse red blood cells (RBCs)", "test": "Hemolysis of erythrocytes", "format": "cell-based", "details": "up to 10.0 mg mL-1, 37 °C, 12 h, absorbance 540 nm", "description": "with 6×105 A549 cells subcutaneously on the right flank for the A549 model. About 2 weeks after implantation, mice with a tumor volume size of 100 mm3 were used for biodistribution and imaging, and mice with a tumor volume size of 50 mm3 for […]\n1.3.11 Blood compatibility\nErythrocytes morphologies and aggregation\nErythrocytes were collected from female BALB/c mice, and erythrocytes suspension was prepared by centrifuging the citrated whole blood at 1000 g for 5 min at room temperature. After the plasma and buffy coat layers were removed, the erythrocytes were washed with PBS 3 times. […]\nThe dried erythrocytes samples were coated with gold and analyzed under a SEM. […]\nErythrocytes were diluted with PBS to prepare the erythrocyte suspension. […] The absorbance of the supernatant was measured with a Microplate Reader at 540 nm, and hemolysis rate was determined using the following […]\nWhere AS is the absorbance of the sample, A100 is the absorbance of lysed erythrocytes in H2O (a positive control), and A0 is the absorbance of 0% hemolysis in PBS (a negative control). […]\nThe backs of healthy BALB/c mice were depilated 3 days before treatment to ensure that all injures had recovered. […] The degree of skin response was examined and scored according to Table S5, and Paraffin sections of the skin were stained with hematoxylin and eosin (H&E) according to the manufacturer's instructions.[3] […]"}, "4T1 cells": {"test_system": "4T1 cells", "test": "Cytotoxicity, CCK-8 assay, 4T1", "format": "cell-based, mouse", "details": "no light, CCK-8, n = 3", "description": "The CCK-8 assay was used to examine the photodynamic therapeutic effect of SSAs on cell viability against three cell lines. 4×103 4T1 cells per well were seeded in a 96-well plate, and then incubated overnight. The cells were treated with different concentrations of Ppa and SSAs at an equivalent Ppa dose. After 24 h incubation, the medium was replaced with fresh one, and the wells were irradiated using a 660 nm laser with 1 J cm−2. After 24 h, the spent media was replaced and the cell viability was assessed using the CCK-8 reagent. The absorbance at […] of each well was recorded on a microplate reader. Untreated cells were served as a control. Results were presented as the average cell viability by following the manufacturer’s instruction. IC50 values were calculated by using nonlinear regression in software Graphpad Prism7. The cytotoxicity of SSAs and Ppa with or without laser against A549 cell line was also measured through the same procedure.\n(§1) The cytotoxicity of SSAs and PDP without laser irradiation was also measured by […]"}, "L02 cells": {"test_system": "L02 cells", "test": "Cytotoxicity, CCK-8 assay, L02", "format": "cell-based, human", "details": "L02 normal cells, 24 h (PDP 24 h and 48 h), CCK-8, n = 3", "description": "Academy of Science Cell Bank for Type Culture Collection (Shanghai, China) and cultured in RPMI-1640 medium, supplemented with 10% fetal bovine serum (FBS), penicillin G (100 U mL-1) and streptomycin (100 μg mL-1), and incubated in 5% CO2 […]\n1.3.7 In vitro ROS generation\nThe intracellular ROS generation was analyzed by using a peroxide-sensitive fluorescent probe, 2′, 7′- dichlorofluorescin-diacetate (DCFH-DA, Beyotime, Beijing, China). According to the manufacturer’s instruction, cells (1×10^6 cells per well) were treated SSAs and Ppa at the same concentration of 1 μg Ppa mL-1. […] 20,000 events were collected and Flowjo software was used for quantifying the intensity of fluorescence.\nThe CCK-8 assay was used to examine the photodynamic therapeutic effect of SSAs on cell viability against three cell lines. […] After 24 h, the spent media was replaced and the cell viability was assessed using the CCK-8 reagent. The absorbance at […] of each well was recorded on a microplate reader. […] IC50 values were calculated by using nonlinear regression in software Graphpad Prism7. The cytotoxicity of SSAs and Ppa with or without laser against A549 cell line was also measured through the same procedure.\nas §1"}, "[2]": {"test": "Size, PDI and zeta potential by DLS", "format": "physicochemical", "description": "(§2) 1.3.2 Size, zeta potential and morphology\n(§3) The size, polydispersity index (PDI), correlation coefficient and zeta potential of self-stabilized supramolecular assemblies (PDPP) were measured by DLS, and the morphology and particle size of PDPP were observed under a TEM. […]\n(§4) 1.3.3 Colloidal stability\n(§5) The colloidal stability of PDPP was assessed by monitoring the change in the size and PDI as a function of time. PDPP were added in H2O, PBS, H2O containing 10% of fetal bovine serum (FBS), and PBS containing 10% of FBS respectively, and these mixtures were incubated at 37℃ in a humidified chamber, and their sizes and PDI were monitored by DLS at a pre-determined time. […]"}, "[3]": {"test": "Colloidal stability (size and PDI over time by DLS)", "format": "physicochemical", "details": "H2O, PBS, H2O or PBS with 10% FBS, 37 °C, 7 d, n = 3", "description": "as §2, §3, §4, §5"}, "[4]": {"test": "Disassembly behavior in Triton X-100, NaCl or urea (DLS)", "format": "physicochemical", "details": "1 h incubation, n = 6", "description": "as §2\n(§6) The size, polydispersity index (PDI), correlation coefficient and zeta potential of self-stabilized supramolecular assemblies (PDPP) were measured by DLS, and the morphology and particle size of PDPP were observed under a TEM. Briefly, PDPP was dissolved in Milli-Q water and ultrasonically dispersed to prepare PDPP solutions at different concentrations (0.1, 0.5, 1.0, 5.0, and 10.0 mg mL-1) for DLS, TEM measurements. Furthermore, the effects of hydrophobic force, ionic interaction, and hydrogen bonding on the supramolecular self-assembly of PDPP were assessed by adding Triton X-100, NaCl, and urea to the PDPP solution with the final concentrations of 1, 5, 10, 20, 50 and 100 mM for Triton X-100, NaCl, and urea. After incubation for 1 h, the size changes of PDPP were recorded by DLS. […]"}, "[5]": {"test": "Critical assembly concentration (pyrene fluorescence probe)", "format": "physicochemical", "details": "in H2O, pyrene as fluorescence probe", "description": "Ppa was dissolved in anhydrous DMSO and then diluted in different concentrations.\nThe absorbance values of PDPP at 667 nm were obtained and the drug loading was calculated according to the standard absorption curve. Drug loading content (DLC) = (weight of Ppa in PDPP / weight of PDPP) × 100%.\nas §2\nas §6, with “Briefly, PDPP was dissolved in Milli-Q water and ultrasonically dispersed to prepare PDPP solutions at different concentrations (0.1, 0.5, 1.0, 5.0, and 10.0 mg mL-1) for DLS, TEM measurements.” left out\nas §5\nThe CAC of PDPP was determined by using pyrene as a fluorescence probe. […]\nFluorescence emission spectrum […]"}},
  "data": [
    {"substance": "PEG‐dendritic peptide [PDP]", "values": [
      {"measurement": "Hemolysis", "setting": "[1]", "result": "no hemolysis is observed and detected"},
      {"measurement": "Cytotoxicity without laser irradiation", "setting": "4T1 cells", "result": "no significant cytotoxicity"},
      {"measurement": "Cytotoxicity without laser irradiation", "setting": "L02 cells", "result": "no significant cytotoxicity"}
    ]},
    {"substance": "PEG‐dendritic peptide‐pyropheophorbide a [PDPP]", "values": [
      {"measurement": "PDI", "setting": "[2]; in H2O", "result": "0.152±0.036"},
      {"measurement": "Size", "setting": "[2]; in H2O", "result": "104.68 ± 15.10", "unit": "nm·days"},
      {"measurement": "Zeta Potential", "setting": "[2]; in H2O", "result": "-25.49±0.58", "unit": "mV"},
      {"measurement": "PDI", "setting": "[2]; in H2O+10%FBS", "result": "0.167±0.012"},
      {"measurement": "Size", "setting": "[2]; in H2O+10%FBS", "result": "96.13 ± 9.72", "unit": "nm·days"},
      {"measurement": "Zeta Potential", "setting": "[2]; in H2O+10%FBS", "result": "-13.57±0.85", "unit": "mV"},
      {"measurement": "PDI", "setting": "[2]; in PBS", "result": "0.137±0.036"},
      {"measurement": "Size", "setting": "[2]; in PBS", "result": "100.38 ± 19.12", "unit": "nm·days"},
      {"measurement": "Zeta Potential", "setting": "[2]; in PBS", "result": "-5.28±7.86", "unit": "mV"},
      {"measurement": "PDI", "setting": "[2]; in PBS+10%FBS", "result": "0.154±0.013"},
      {"measurement": "Size", "setting": "[2]; in PBS+10%FBS", "result": "102.58 ± 8.94", "unit": "nm·days"},
      {"measurement": "Zeta Potential", "setting": "[2]; in PBS+10%FBS", "result": "-7.34±0.94", "unit": "mV"},
      {"measurement": "Colloidal stability: size and PDI over time", "setting": "[3]", "result": "remain unchanged for 7 d"},
      {"measurement": "Change in size and PDI after dispersion in NaCl or urea solution", "setting": "[4]; 1-100 mM NaCl or urea", "result": "no significant change"},
      {"measurement": "Disassembly behavior in Triton solution", "setting": "[4]; Triton X-100 at a high concentration (1-100 mM tested)", "result": "disassembly behaviors of PDPP would have occurred"},
      {"measurement": "Critical assembly concentration (CAC)", "setting": "[5]", "result": 4.85, "unit": "µg/mL"}
    ]}
  ]
}
